What was measured:
RAJI-CD19-KO cells = assay: JNG assay, co-culture with RAJI-CD19-KO cells; format: cell-based; conditions: co-culture with Raji-CD19-KO
Procedure: Cellular supernatant is collected and assayed for the induction of cytokines (e.g., IL2).
JNG (Jurkat cells expressing EGFP under an NFAT promoter) were infected with lentiviral vectors encoding different single chain and multi-chain SARs by spinfection in the presence of 8 µg/ml of Polybrene® (Sigma, Catalog no. H9268). The Jurkat-NFAT-GFP cells are engineered in such a way that the IL-2 promoter, which carries NFAT binding sites, is cloned upstream of the GFP gene. These cells have been used to study signaling via TCR and CAR. The different SARs were stably expressed in Jurkat NFAT-GFP cells by lentiviral mediated gene transfer, followed by selection with puromycin or blasticidin. No drug selection was used in case the construct lacked an antibiotic resistance gene. The SAR-expressing Jurkat-NFAT-GFP cells were cocultured with the target cells at E:T ratio of approximately 1:2 for approximately 4 hours to 18 hours. When the interaction between SIRs and their target antigen results in activation of the NFAT pathway, GFP expression is induced. […] GFP expression was monitored by FACS analysis. The Jurkat-NFAT-GFP (parental) cells were used as control. The structure of different constructs can be determined based on their names. […] The sequence of the other constructs in the table can be similarly determined from their names and by referring to the different Tables of this disclosure that provide the names and SEQ ID NO of the different modules. Alternatively, the composition and modular architecture of the different SAR constructs can be determined from their sequences by bioinformatics tools, including using nucleic acid and amino acids homology searches. A SAR is considered positive in the assay in case the SAR expressing Jurkat-NFAT-GFP cells show greater % GFP positive cells when cultured with the target cell line as compared to parental Jurkat-NFAT-GFP cells. […] In general, the number +/-, +, 2+, 3+, 4+, 5+ refer to approximately 5%, 10%, 20%, 30%, 40% and 50% GFP positive cells. The % of GFP induction in the above assay is dependent not only the relative strength of the SAR but also, among other factors, on the relative level of expression of the SAR in the JNG cells and the relative level of expression of the target antigen in the target cell line. To control for the difference in gene transduction efficiency of the different SAR constructs, the experiment was conducted with JNG cells transduced with SAR constructs co-expressing a drug resistance gene (e.g., puromycin or PAC) followed by drug selection to generate a stable population of SAR-expressing cells. It is to be noted that the drug resistance gene (e.g., PAC) in the SAR constructs is optional and in vivo studies were conducted with SAR constructs lacking the PAC gene.

RAJI cells = assay: JNG assay, co-culture with RAJI cells; format: cell-based; conditions: JNG cells expressing construct, co-culture with Raji
Outline: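 Read-out is NFAT-driven GFP measured by flow cytometry after ~4–18 h co-culture of SAR-expressing JNG cells with target cells (E:T about 1:2). SARs were introduced by lentiviral spinfection and selected with puromycin or blasticidin when possible; scores (+/- to 5+ ≈ 5–50% GFP+) are relative to parental JNG cells.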

B1: 22112 (protein)
chain: MALPVTALLLPLALLLHAARPDIQMTQSPSSLSASVGDRVTITCKASDHINNWLAWYQQKPGQAPKLLIYGATTLETGVPSRFSGSGSGTDYTLTISSLQPEDFATYYCQQSWNTPWTFGQGTKLEIKRLEDLKNVFPPEVAVFEPSEAEISHTQKATLVCLATGFYPDHVELSWWVNGKEVHSGVCTDPQPLKEQPALNDSRYCLSSRLRVSATFWQNPRNHFRCQVQFYGLSENDEWTQDRAKPVTQIVSAEAWGRADCGFTSESYQQGVLSATILYEILLGKATLYAVLVSALVLMAMVKRKDSRGRAKRSGSGATNFSLLKQAGDVEENPGPTSATMDWIWRILFLVGAATGAHSGPEVQLVESGGGLVQAGGSLRLSCAASGRTFTMGWFRQAPGKEREFVAAISLSPTLAYYADSVKGRFTISRDNAKNTVVLQMNSLKPEDTALYYCAADRKSVMSIRPDYWGQGTQVTVSSGSGGGGSGGGGSGGGGSFEQVQLQQPGAELVKPGASVKMSCKASGYAFSSYWINWMKQKPGQGLEWIGQIYPGDGDTNYNGKFKGRATLTADTSSSTAYMQLSSLTSEDSAVYFCARSITTVVGCAMDYWGQGTSVTVSSTRIQNPDPAVYQLRDSKSSDKSVCLFTDFDSQTNVSQSKDSDVYITDKCVLDMRSMDFKSNSAVAWSNKSDFACANAFNNSIIPEDTFFPSPESSCDVKLVEKSFETDTNLNFQNLSVIGFRILLLKVAGFNLLMTLRLWSSRAKRSGSGVKQTLNFDLLKLAGDVESNPGPSRGHMTEYKPTVRLATRDDVPRAVRTLAAAFADYPATRHTVDPDRHIERVTELQELFLTRVGLDIGKVWVADDGAAVAVWTTPESVEAGAVFAEIGPRMAELSGSRLAAQQQMEGLLAPHRPKEPAWFLATVGVSPDHQGKGLGSAVVLPGVEAAERAGVPAFLETSAPRNLPFYERLGFTVTADVEVPEGPRTWCMTRKPGA
NFAT-GFP ASSAY: Raji-CD19-KO (RAJI-CD19-KO cells): 5+ (refer to approximately 5%, 10%, 20%, 30%, 40% and 50% GFP positive cells)

B2: 22120 (protein)
chain: MALPVTALLLPLALLLHAARPDIQMTQSPSSLSASVGDRVTITCKASDHINNWLAWYQQKPGQAPKLLIYGATTLETGVPSRFSGSGSGTDYTLTISSLQPEDFATYYCQQSWNTPWTFGQGTKLEIKRLEGQPKANPTVTLFPPSSEELQANKATLVCLISDFYPGAVTVAWKADGSPVKAGVETTKPSKQSNNKYAASSYLSLTPEQWKSHRSYSCQVTHEGSTVEKTVAPTECSGRADCGFTSESYQQGVLSATILYEILLGKATLYAVLVSALVLMAMVKRKDSRGRAKRSGSGATNFSLLKQAGDVEENPGPTSATMDWIWRILFLVGAATGAHSGPQVQLQESGGGLAQAGGSLRLSCAASGRTFSMGWFRQAPGKEREFVAAITYSGGSPYYASSVRGRFTISRDNAKNTVYLQMNSLKPEDTAVYYCAANPTYGSDWNAENWGQGTQVTVSSGSGGGGSGGGGSGGGGSFEQVQLQQPGAELVKPGASVKMSCKASGYAFSSYWINWMKQKPGQGLEWIGQIYPGDGDTNYNGKFKGRATLTADTSSSTAYMQLSSLTSEDSAVYFCARSITTVVGCAMDYWGQGTSVTVSSTRASTKGPSVFPLAPSSKSTSGGTAALGCLVKDYFPEPVTVSWNSGALTSGVHTFPAVLQSSGLYSLSSVVTVPSSSLGTQTYICNVNHKPSNTKVDKRVEPKSCIPEDTFFPSPESSCDVKLVEKSFETDTNLNFQNLSVIGFRILLLKVAGFNLLMTLRLWSSRAKRSGSGVKQTLNFDLLKLAGDVESNPGPSRGHMTEYKPTVRLATRDDVPRAVRTLAAAFADYPATRHTVDPDRHIERVTELQELFLTRVGLDIGKVWVADDGAAVAVWTTPESVEAGAVFAEIGPRMAELSGSRLAAQQQMEGLLAPHRPKEPAWFLATVGVSPDHQGKGLGSAVVLPGVEAAERAGVPAFLETSAPRNLPFYERLGFTVTADVEVPEGPRTWCMTRKPGA
NFAT-GFP ASSAY: Raji (RAJI cells): 4+ (refer to approximately 5%, 10%, 20%, 30%, 40% and 50% GFP positive cells) | NFAT-GFP ASSAY: Raji-CD19-KO (RAJI-CD19-KO cells): 3+ (refer to approximately 5%, 10%, 20%, 30%, 40% and 50% GFP positive cells)

B3: 22133 (protein)
chain: MALPVTALLLPLALLLHAARPEVQLVESGGGLVQPGGSLRLSCAASGFSFSDFWMSWVRQAPGKGLEWVATISQAGSEKDYVDSVKGRFTISRDNAKKSLYLQMNSLRAEDTAVYYCASGVYSFDYRGQGTLVTVSSGTGGGGSGGGGSGGGGSEFDIQMTQSPSSLSASVGDRVTITCKASDHINNWLAWYQQKPGQAPKLLIYGATTLETGVPSRFSGSGSGTDYTLTISSLQPEDFATYYCQQSWNTPWTFGQGTKLEIKRLEDLKNVFPPEVAVFEPSKAEIAHTQKATLVCLATGFYPDHVELSWWVNGKEVHSGVCTDPQPLKEQPALNDSRYCLSSRLRVSATFWQNPRNHFRCQVQFYGLSENDEWTQDRAKPVTQIVSAEAWGRADCGITSASYHQGVLSATILYEILLGKATLYAVLVSALVLMAMVKRKDSRGRAKRSGSGATNFSLLKQAGDVEENPGPTSATMDWIWRILFLVGAATGAHSGPQVQLQESGGGLAQAGGSLRLSCAASGRTFSMGWFRQAPGKEREFVAAITYSGGSPYYASSVRGRFTISRDNAKNTVYLQMNSLKPEDTAVYYCAANPTYGSDWNAENWGQGTQVTVSSGSGGGGSGGGGSGGGGSFEQVQLQQPGAELVKPGASVKMSCKASGYAFSSYWINWMKQKPGQGLEWIGQIYPGDGDTNYNGKFKGRATLTADTSSSTAYMQLSSLTSEDSAVYFCARSITTVVGCAMDYWGQGTSVTVSSTRIQNPDPAVYQLRDSKSSDKSVCLFTDFDSQTNVSQSKDSDVYITDKCVLDMRSMDFKSNSAVAWSNKSDFACANAFNNSIIPEDTFFPSSDVPCDVKLVEKSFETDTNLNFQNLSVIGFRILLLKVAGFNLLMTLRLWSSRAKRSGSGVKQTLNFDLLKLAGDVESNPGPSRGHMTEYKPTVRLATRDDVPRAVRTLAAAFADYPATRHTVDPDRHIERVTELQELFLTRVGLDIGKVWVADDGAAVAVWTTPESVEAGAVFAEIGPRMAELSGSRLAAQQQMEGLLAPHRPKEPAWFLATVGVSPDHQGKGLGSAVVLPGVEAAERAGVPAFLETSAPRNLPFYERLGFTVTADVEVPEGPRTWCMTRKPGA
NFAT-GFP ASSAY: Raji-CD19-KO (RAJI-CD19-KO cells): 5+ (refer to approximately 5%, 10%, 20%, 30%, 40% and 50% GFP positive cells)

B4: 22113 (protein)
chain: MALPVTALLLPLALLLHAARPDIQMTQSPSSLSASVGDRVTITCKASDHINNWLAWYQQKPGQAPKLLIYGATTLETGVPSRFSGSGSGTDYTLTISSLQPEDFATYYCQQSWNTPWTFGQGTKLEIKRLEDLKNVFPPEVAVFEPSKAEIAHTQKATLVCLATGFYPDHVELSWWVNGKEVHSGVCTDPQPLKEQPALNDSRYCLSSRLRVSATFWQNPRNHFRCQVQFYGLSENDEWTQDRAKPVTQIVSAEAWGRADCGITSASYHQGVLSATILYEILLGKATLYAVLVSALVLMAMVKRKDSRGRAKRSGSGATNFSLLKQAGDVEENPGPTSMDWIWRILFLVGAATGAHSGPQVQLQESGGGLAQAGGSLRLSCAASGRTFSMGWFRQAPGKEREFVAAITYSGGSPYYASSVRGRFTISRDNAKNTVYLQMNSLKPEDTAVYYCAANPTYGSDWNAENWGQGTQVTVSSGSGGGGSGGGGSGGGGSFEQVQLQQPGAELVKPGASVKMSCKASGYAFSSYWINWMKQKPGQGLEWIGQIYPGDGDTNYNGKFKGRATLTADTSSSTAYMQLSSLTSEDSAVYFCARSITTVVGCAMDYWGQGTSVTVSSTRIQNPDPAVYQLRDSKSSDKSVCLFTDFDSQTNVSQSKDSDVYITDKCVLDMRSMDFKSNSAVAWSNKSDFACANAFNNSIIPEDTFFPSSDVPCDVKLVEKSFETDTNLNFQNLSVIGFRILLLKVAGFNLLMTLRLWSSRAKRSGSGVKQTLNFDLLKLAGDVESNPGPSRGHMTEYKPTVRLATRDDVPRAVRTLAAAFADYPATRHTVDPDRHIERVTELQELFLTRVGLDIGKVWVADDGAAVAVWTTPESVEAGAVFAEIGPRMAELSGSRLAAQQQMEGLLAPHRPKEPAWFLATVGVSPDHQGKGLGSAVVLPGVEAAERAGVPAFLETSAPRNLPFYERLGFTVTADVEVPEGPRTWCMTRKPGA
NFAT-GFP ASSAY: Raji (RAJI cells): 5+ (refer to approximately 5%, 10%, 20%, 30%, 40% and 50% GFP positive cells) | NFAT-GFP ASSAY: Raji-CD19-KO (RAJI-CD19-KO cells): 4+ (refer to approximately 5%, 10%, 20%, 30%, 40% and 50% GFP positive cells)
